Laboratory results reported in article PMC9425028, “The complex formation of MASP-3 with pattern recognition molecules of the lectin complement pathway retains MASP-3 in the circulation” (Frontiers in Immunology, 2022).
Substitutions are numbered along the chain they refer to.

How the values were obtained:
Test in all cases: ELISA; sandwich ELISA: 10 ug each of rmMASP-3-PA and rmMASP-3-ALFA mixed, dialysed against TBS/10 mM EDTA 24 h at 4°C, then against TBS/5 mM CaCl2 24 h at 4°C; 0.14 uM of each, serially diluted in 20% Blocking One in TBS/Ca; captured on anti-PA tag antibody, 30 min room temperature; detected with HRP-conjugated anti-ALFA nanobody
Conditions in all cases: both partners purified
[1] = target: T1, wild-type recombinant mouse MASP-3 fused with PA-tag (WT rmMASP-3-PA) (mouse, UniProt P98064-2 25-733)
T1 construct: Secreted from CHO cells, purified as a proenzyme of about 110 kDa; in the circulation partly cleaved into H-chain and L-chain (active form); also called WT-PA; source: CHO cells, transfected, culture supernatant, purified (anti-PA tag antibody beads); not shown: PA tag (human podoplanin dodecapeptide), C-terminal, kept
T1 sequence (looked up): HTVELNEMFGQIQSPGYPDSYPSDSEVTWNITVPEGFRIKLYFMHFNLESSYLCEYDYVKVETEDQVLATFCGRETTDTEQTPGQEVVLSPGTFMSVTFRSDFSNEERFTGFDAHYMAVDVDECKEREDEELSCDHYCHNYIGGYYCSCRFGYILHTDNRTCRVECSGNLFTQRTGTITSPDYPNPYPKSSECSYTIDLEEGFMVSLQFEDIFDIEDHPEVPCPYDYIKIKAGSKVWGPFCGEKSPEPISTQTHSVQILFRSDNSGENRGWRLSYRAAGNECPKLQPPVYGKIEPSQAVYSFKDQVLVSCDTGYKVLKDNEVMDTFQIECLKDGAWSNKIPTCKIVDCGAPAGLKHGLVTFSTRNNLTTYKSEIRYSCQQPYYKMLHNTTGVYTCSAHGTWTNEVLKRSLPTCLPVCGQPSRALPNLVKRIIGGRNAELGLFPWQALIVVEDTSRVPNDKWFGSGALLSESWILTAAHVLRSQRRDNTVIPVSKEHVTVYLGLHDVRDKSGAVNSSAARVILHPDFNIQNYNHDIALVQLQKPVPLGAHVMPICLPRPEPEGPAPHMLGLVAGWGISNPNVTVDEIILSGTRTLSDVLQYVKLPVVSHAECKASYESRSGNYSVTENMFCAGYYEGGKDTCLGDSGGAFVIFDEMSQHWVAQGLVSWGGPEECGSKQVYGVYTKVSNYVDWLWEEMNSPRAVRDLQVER

[2] = target: T2, E49A mutant recombinant mouse MASP-3 fused with PA-tag (mouse, UniProt P98064-2 25-733, E49A)
T2 construct: Made from the pCAG-Bsd PA tag-C/WT rmMASP-3 plasmid by site-directed mutagenesis; also called E49A rmMASP-3-PA; mutant rmMASP-3-PA; source: CHO cells, transfected, culture supernatant, purified (anti-PA tag antibody beads); not shown: PA tag (human podoplanin dodecapeptide), C-terminal, kept
T2 sequence (looked up): T1 sequence (looked up) with E49A

[3] = target: T3, H218A mutant recombinant mouse MASP-3 fused with PA-tag (mouse, UniProt P98064-2 25-733, H218A)
T3 construct: Made from the pCAG-Bsd PA tag-C/WT rmMASP-3 plasmid by site-directed mutagenesis; also called H218A rmMASP-3-PA; mutant rmMASP-3-PA; source: CHO cells, transfected, culture supernatant, purified (anti-PA tag antibody beads); not shown: PA tag (human podoplanin dodecapeptide), C-terminal, kept
T3 sequence (looked up): T1 sequence (looked up) with H218A

[4] = target: T4, Y225A mutant recombinant mouse MASP-3 fused with PA-tag (mouse, UniProt P98064-2 25-733, Y225A)
T4 construct: Made from the pCAG-Bsd PA tag-C/WT rmMASP-3 plasmid by site-directed mutagenesis; also called Y225A rmMASP-3-PA; mutant rmMASP-3-PA; source: CHO cells, transfected, culture supernatant, purified (anti-PA tag antibody beads); not shown: PA tag (human podoplanin dodecapeptide), C-terminal, kept
T4 sequence (looked up): T1 sequence (looked up) with Y225A

Measured: binding result

B1: wild-type recombinant mouse MASP-3 with ALFA tag (WT rmMASP-3-ALFA) (enzyme, UniProt P98064-2 25-733, looked up)
chain: T1 sequence (looked up)
notes: The fragment was put into the pCAG-Bsd PA tag-C vector; also called WT-ALFA; source: CHO cells, transfected, culture supernatant, purified (ALFA Selector ST); not shown: ALFA tag, C-terminal, kept
binds: [1] | [2] | [3] | [4]
